{
  "source": "paper PMC11228984",
  "about": "“TREK2 Lipid Binding Preferences Revealed by Native Mass Spectrometry” (Journal of the American Society for Mass Spectrometry, 2024)",
  "target": "the molecule itself",
  "test": "native MS; 200 mM ammonium acetate, 0.062% C10E5, nanoelectrospray, Orbitrap EMR, room temperature; sample expressed with kifunensine and treated with EndoH",
  "data": [
    {"protein": "TREK2^N84Q (TREK2 residues 55-335, T58A, N144Q, C-terminal StrepTag-II) (domain or fragment, UniProt P57789-1 55-335, looked up, remaining inner core GlcNAc on Asn after EndoH cleavage; potential modifications of the glycan, TREK2, two-pore domain potassium channel, UniProt P57789-1, residues 55-335 with T58A; The text introduces the mutant as N144Q and then calls it TREK2^N84Q; The Addgene plasmid is named for the parent construct with T58A; also called TREK2 N144Q) MEGASQGGLQTVMKWKTVVAIFVVVVVYLVTGGLVFRALEQPFESSQKNTIALEKAEFLRDHVCVSPQELETLIQHALDADNAGVSPIGQSSNNSSHWDLGSAFFFAGTVITTIGYGNIAPSTEGGKIFCILYAIFGIPLFGFLLAGIGDQLGTIFGKSIARVEKVFRKKQVSQTKIRVISTILFILAGCIVFVTIPAVIFKYIEGWTALESIYFVVVTLTTVGFGDFVAGGNAGINYREWYKPLVWFWILVGLAYFAAVLSMIGDWLRVLSKKTKEEVGE", "values": [
      {"measurement": "stoichiometry N", "result": 2}
    ]}
  ]
}
